Measured values reported in patent US6818617B1 (Temple University- Of The Commonwealth System of Higher …, priority 1997, dated 2004).
Entries after “also recorded” stand apart in the source; their conditions may differ. Where two headings read alike, the source gives them in different places.

Assays:
αIIbβ3 [1] = target: T1, αIIbβ3 (Homo sapiens, UniProt P05106+P08514); test: A5 (CHOαIIbβ3+) cell adhesion to immobilized fibrinogen; assay type: cell-based; settings: A5 (CHOαIIbβ3+) cells, ligand Fg
Protocol: (§1) Adhesion of cultured cells labeled with 5-chloromethylfluorescein diacetate (CMFDA) was performed as described earlier (Marcinkiewicz et al., Blood 90:1565-1575 (1997)). […] Wells were blocked by 1% BSA in HBSS buffer. Cells were labeled with fluorescein by incubation with 12.5 AM CMFDA in HBSS buffer containing 1% BSA at 37° C. by 15 min. Unbound label was removed by washing with the same buffer. Labeled cells (1×10^5 per sample) were added to the well in the presence or absence of inhibitors and incubated at 37° C. for 30 min. Unbound cells were removed by aspiration, the wells were washed and bound cells were lysed by adding 0.5% Triton X-100. In parallel the standard curve was prepared in the same plate from known concentrations of labelled cells. The plate was read using a Cytofluor 2350 fluorescence plate reader (Millipore, Bedford, Mass.) at 485 nm EX(excitation) filter and 530 nm (emmision) filter.
(§2) The effect of each peptide on cell adhesion was determined as described above. […] Cells that attached to the plates were lysed with detergent, and fluorescence intensity was measured. Percent inhibition was measured at each concentration and IC50 was determined.

αvβ3 = target: T2, αvβ3 (Homo sapiens, UniProt P05106+P06756); test: VNRC3 (CHOαvβ3+) cell adhesion to immobilized vitronectin; assay type: cell-based
T2 construct: expressed in transfected cells; host or cells: CHO (VNRC3 cells), gift of Dr. M. Ginsberg
T2 sequence (P06756 31-889 limits assumed): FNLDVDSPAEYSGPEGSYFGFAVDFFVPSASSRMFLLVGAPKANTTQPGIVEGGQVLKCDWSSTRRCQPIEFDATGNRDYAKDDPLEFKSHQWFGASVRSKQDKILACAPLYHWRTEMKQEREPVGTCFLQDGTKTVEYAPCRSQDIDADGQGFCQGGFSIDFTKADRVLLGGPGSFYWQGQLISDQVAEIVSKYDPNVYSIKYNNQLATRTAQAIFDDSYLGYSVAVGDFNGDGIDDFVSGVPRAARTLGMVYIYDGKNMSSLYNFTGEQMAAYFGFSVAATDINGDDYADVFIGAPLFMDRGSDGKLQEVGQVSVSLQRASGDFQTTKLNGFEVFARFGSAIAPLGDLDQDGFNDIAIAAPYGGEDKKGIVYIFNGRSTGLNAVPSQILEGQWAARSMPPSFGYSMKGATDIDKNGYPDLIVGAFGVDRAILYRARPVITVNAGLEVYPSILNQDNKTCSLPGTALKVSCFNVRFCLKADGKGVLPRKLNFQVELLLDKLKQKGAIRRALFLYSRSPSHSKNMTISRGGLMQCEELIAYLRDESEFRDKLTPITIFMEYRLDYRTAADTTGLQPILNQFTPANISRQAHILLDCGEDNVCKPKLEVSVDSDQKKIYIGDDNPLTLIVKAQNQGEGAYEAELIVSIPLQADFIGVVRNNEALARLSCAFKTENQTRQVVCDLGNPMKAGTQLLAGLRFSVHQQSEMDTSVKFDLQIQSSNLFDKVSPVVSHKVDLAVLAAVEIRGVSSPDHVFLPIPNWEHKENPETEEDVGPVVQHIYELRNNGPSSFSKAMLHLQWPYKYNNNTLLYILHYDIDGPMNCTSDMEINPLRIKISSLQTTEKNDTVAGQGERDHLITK
T2 sequence (P06756 891-1048 partner limits assumed): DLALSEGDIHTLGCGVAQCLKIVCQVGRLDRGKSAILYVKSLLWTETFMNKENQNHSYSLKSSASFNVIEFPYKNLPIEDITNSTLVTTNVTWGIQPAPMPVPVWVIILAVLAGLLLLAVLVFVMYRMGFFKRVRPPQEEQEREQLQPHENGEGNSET
T2 sequence (P05106 27-788): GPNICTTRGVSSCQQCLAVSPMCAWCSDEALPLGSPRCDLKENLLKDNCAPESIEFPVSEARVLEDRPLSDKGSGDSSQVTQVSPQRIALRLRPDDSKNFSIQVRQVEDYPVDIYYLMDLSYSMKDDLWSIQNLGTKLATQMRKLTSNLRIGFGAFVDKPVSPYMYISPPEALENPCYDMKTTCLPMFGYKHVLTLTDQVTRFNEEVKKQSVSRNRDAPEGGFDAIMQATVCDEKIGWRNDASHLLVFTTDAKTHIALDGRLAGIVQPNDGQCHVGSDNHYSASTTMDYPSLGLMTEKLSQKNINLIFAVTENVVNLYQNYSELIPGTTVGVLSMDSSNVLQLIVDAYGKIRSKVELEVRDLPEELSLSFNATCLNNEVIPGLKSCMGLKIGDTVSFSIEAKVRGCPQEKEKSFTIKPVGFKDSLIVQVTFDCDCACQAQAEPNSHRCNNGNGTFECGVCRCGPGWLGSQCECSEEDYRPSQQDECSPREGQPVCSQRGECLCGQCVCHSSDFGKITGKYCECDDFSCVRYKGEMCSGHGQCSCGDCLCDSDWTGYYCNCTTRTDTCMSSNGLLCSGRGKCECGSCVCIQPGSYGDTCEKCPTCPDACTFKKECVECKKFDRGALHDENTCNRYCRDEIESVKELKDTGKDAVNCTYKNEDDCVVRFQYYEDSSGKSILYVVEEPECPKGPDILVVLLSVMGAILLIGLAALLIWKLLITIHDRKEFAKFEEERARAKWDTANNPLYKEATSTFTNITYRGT
Protocol: as §1, §2

α5β1 = target: T3, α5β1 (Homo sapiens, UniProt P05556+P08648); test: K562 cell adhesion to immobilized fibronectin; assay type: cell-based; settings: 5 μg per sample of protein from fraction
T3 construct: host or cells: K562
T3 sequence (P08648 42-894 limits assumed): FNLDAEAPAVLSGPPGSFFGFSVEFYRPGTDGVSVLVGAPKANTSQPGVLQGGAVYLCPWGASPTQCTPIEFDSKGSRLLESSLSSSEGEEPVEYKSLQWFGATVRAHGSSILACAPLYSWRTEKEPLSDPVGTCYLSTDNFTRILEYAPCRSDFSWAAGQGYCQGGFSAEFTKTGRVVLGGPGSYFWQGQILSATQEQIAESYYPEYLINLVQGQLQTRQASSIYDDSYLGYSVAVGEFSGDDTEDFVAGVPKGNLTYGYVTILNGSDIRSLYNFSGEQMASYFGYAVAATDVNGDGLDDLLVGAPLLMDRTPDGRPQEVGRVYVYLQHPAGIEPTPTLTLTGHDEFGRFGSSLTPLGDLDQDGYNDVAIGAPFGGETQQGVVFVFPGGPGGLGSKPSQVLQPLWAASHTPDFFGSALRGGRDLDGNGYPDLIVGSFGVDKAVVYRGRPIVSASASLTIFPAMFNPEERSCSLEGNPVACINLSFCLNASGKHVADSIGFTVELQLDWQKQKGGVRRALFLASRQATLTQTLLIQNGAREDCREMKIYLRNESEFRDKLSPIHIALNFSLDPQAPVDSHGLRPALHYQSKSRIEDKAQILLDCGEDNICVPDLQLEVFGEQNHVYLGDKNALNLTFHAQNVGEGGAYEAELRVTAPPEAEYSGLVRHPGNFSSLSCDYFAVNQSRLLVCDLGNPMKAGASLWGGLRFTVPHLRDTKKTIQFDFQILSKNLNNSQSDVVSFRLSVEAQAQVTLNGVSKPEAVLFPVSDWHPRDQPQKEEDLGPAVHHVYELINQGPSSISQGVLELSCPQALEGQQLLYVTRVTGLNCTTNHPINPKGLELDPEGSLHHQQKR
T3 sequence (P08648 895-1049 partner limits assumed): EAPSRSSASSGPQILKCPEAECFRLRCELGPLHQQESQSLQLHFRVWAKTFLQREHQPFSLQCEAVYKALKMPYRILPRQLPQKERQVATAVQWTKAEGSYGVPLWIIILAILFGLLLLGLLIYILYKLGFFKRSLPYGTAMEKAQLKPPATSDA
T3 sequence (P05556 21-798): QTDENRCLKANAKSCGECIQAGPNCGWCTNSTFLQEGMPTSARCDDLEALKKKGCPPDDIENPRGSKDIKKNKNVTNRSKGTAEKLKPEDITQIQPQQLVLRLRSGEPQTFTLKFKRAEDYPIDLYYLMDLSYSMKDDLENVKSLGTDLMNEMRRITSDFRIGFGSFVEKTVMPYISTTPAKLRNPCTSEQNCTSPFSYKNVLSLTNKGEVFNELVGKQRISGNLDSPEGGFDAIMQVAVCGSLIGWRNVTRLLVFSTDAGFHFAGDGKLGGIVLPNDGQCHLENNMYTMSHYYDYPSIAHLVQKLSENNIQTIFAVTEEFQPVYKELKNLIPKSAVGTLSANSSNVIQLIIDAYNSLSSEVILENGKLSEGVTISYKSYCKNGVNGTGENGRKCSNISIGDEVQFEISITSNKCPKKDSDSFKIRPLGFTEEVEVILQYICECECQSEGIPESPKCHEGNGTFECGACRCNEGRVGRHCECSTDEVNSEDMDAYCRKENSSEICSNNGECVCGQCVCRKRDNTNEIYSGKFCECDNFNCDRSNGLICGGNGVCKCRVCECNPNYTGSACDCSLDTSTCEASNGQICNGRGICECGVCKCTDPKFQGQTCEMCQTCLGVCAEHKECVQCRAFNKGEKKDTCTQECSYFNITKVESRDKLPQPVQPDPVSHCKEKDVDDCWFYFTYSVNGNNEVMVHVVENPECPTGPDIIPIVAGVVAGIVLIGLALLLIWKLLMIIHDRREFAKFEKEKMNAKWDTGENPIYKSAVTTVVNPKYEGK
Protocol: as §1

α6β1 = target: T4, α6β1 (Homo sapiens, UniProt P05556+P23229); test: K562 (α6+) cell adhesion to laminin; assay type: cell-based
T4 construct: expressed in transfected cells; host or cells: K562 transfected with α6
T4 sequence (P23229 24-938 limits assumed): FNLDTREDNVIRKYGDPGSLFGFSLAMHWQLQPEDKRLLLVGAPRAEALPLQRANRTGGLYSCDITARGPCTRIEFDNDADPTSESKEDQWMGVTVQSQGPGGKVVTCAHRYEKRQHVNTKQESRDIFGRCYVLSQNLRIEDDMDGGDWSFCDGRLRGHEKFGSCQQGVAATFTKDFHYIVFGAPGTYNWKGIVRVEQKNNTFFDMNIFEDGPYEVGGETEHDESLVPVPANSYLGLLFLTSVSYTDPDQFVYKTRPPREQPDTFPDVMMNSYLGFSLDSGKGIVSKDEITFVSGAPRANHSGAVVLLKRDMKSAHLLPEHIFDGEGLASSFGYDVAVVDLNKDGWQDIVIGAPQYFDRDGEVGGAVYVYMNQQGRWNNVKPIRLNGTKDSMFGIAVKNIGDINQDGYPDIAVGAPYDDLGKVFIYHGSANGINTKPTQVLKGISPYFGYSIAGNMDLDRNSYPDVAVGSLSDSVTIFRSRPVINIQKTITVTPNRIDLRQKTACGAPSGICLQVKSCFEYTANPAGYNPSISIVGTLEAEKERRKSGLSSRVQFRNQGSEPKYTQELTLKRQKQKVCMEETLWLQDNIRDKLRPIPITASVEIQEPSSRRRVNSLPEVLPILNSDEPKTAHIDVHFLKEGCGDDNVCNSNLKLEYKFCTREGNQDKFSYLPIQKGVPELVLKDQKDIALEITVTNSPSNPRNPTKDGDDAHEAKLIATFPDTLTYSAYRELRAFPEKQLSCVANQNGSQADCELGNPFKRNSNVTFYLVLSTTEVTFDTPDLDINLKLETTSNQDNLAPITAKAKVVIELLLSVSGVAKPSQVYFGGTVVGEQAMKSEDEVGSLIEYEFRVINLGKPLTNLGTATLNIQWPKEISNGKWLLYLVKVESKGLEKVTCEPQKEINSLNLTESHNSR
T4 sequence (P23229 942-1130 partner limits assumed): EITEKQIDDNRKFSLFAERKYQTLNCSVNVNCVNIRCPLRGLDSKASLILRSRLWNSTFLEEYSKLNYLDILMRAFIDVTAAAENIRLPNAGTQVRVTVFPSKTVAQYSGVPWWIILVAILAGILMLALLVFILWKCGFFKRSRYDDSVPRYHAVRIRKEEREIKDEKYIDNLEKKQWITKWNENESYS
T4 sequence (P05556 21-798): as the sequence (P05556 21-798) above
Protocol: as §1, §2

α4β1 [2] = target: T5, α4β1 (Homo sapiens, UniProt P05556+P13612); settings: read-out: IC50, direct binding assay; Jurkat cells, α4β1, VCAM-Ig
Protocol: (§3) The direct binding assay (DBA) with VCAM-11 g alkaline phosphatase conjugate was performed using Jurkat (α4β1 expressing) and JY (α4β7 expressing) cells according to procedure described in Lobb et al, Cell Adhes. Commun. 3:385-398 (1995)).

α4β7 [3] = target: T6, α4β7 (Homo sapiens, UniProt P13612+P26010); settings: read-out: IC50, direct binding assay; JY cells, α4β7, VCAM-Ig
Protocol: as §3

α4β1 and α4β7 integrins = test: Panel of α4 integrin cell adhesion assays; assay type: cell-based; settings: range over assays
Protocol: as §1, §2

α4β1 integrin [4] = target: T7, α4β1 integrin (Homo sapiens, UniProt P05556+P13612); test: HP2/1 antibody binding to Jurkat cells by flow cytometry; settings: 60 nM EC3, 10 μg/ml HP 2/1, flow cytometry
T7 construct: host or cells: Jurkat
Protocol: (§4) Samples for flow cytometry analysis were prepared as described (Marcinkiewicz et al., Biochem. J. 371:118-124 (1996)), and analyzed in a Coulter Epics flow cytometer (Miami, Fla.).
(§5) The adhesion study was performed using CMFDA-labeled Jurkat cells in the absence or presence 1 mM GRGDSP or GRGESP, or 10 μg/ml HP 2/1. Competition between EC3 and HP2/1 was also confirmed in cell suspension using FACS analysis. […] The experiment was performed using flow cytometry. Jurkat cells (open bars) or B2-CHO cells (CHO cells with deleted α5 transfected with α4) (closed bars) were incubated with 10 μg/ml HP 2/1 in the absence (a) or presence 60 nM EC3 (b) for 30 min at room temperature. After washing, 10 μg/ml of FITC-conjugated goat anti-mouse IgG was added and samples were incubated for another 30 min at room temperature. The samples were fixed by addition of 1% paraformaldehyde before measurement of fluorescence intensity.

α4β1 integrin [5] = target: T8, α4β1 integrin (UniProt G3HZ55+P13612); test: HP2/1 antibody binding to α4B2 cells by flow cytometry; set-up: species or system human; settings: 60 nM EC3, 10 μg/ml HP 2/1, flow cytometry
T8 construct: expressed in transfected cells; host or cells: B2 CHO cells (α5-deficient), gift of Dr. Y. Takada
Protocol: as §4, §5

α4 inactive G190A mutant = target: T9, α4 inactive G190A mutant (Homo sapiens, UniProt P13612, G223A); test: Adhesion of CHO cells transfected with α4 G190A mutant to immobilized EC3; assay type: cell-based; settings: EC3 2 μg/well immobilized; adhesion identical with non transfected cells
T9 construct: expressed in transfected cells; host or cells: CHO, gift of Dr. Y. Takada
Protocol: as §1
EC3 (2 μg/well) and HP2/1 (1 μg/well) were immobilized on the 96well plate. The CHO cells were labeled with CMFDA and adhesion was performed as described above. […] Only A2 cells expressing wild type α4 adhered to immobilized HP2/1.

[6] = tested on: lymphocyte infiltration of pancreatic Langerhans islets; test: Lymphocyte infiltration of Langerhans islets in Non Obese Diabetic (NOD) mice; assay type: in vivo, mouse
Protocol: Female NOD mice from […] of age were purchased from Jackson Laboratory (Bar Harbor, Me.).
After nine weeks of treatment the animals were sacrificed by exposure to CO2. The pancreas was removed, frozen, and stored at −70° C. until the histological analysis. For the histological analysis, five μm sections of frozen tissue were fixed with acetone. For detection of infiltrating lymphocytes, the sections were stained with hematoxylin/eosin, and observed by light microscopy.

α4β1 [7] = target: T5, α4β1; test: Jurkat cell adhesion to immobilized VCAM-1; assay type: cell-based; set-up: host or cells: Jurkat
Protocol: as §1
The cell adhesion assay (as described in Example 1) was used to study the inhibitory effect of the eluted fractions on Jurkat cell adhesion to immobilized VCAM-1 and on K562 cell adhesion to fibronectin. […]
as §2

α4β1 [8] = target: T5, α4β1; test: Jurkat cell adhesion to CS-1; assay type: cell-based; set-up: host or cells: Jurkat; settings: Jurkat cells, ligand CS-1
Protocol: as §1, §2

αIIbβ3 [9] = target: T1, αIIbβ3; test: ADP-induced platelet aggregation in platelet rich plasma (ADP PA); assay type: cell-based; set-up: endogenous in cells; host or cells: platelets in platelet rich plasma; settings: Platelets, αIIbβ3, ligand Fg, 30 μM ADP
Protocol: Blood from a healthy donor was collected into a syringe containing sodium citrate as an anticoagulant. The anticoagulated blood was centrifuged at 400 g for 17 minutes, and platelet rich plasma (PRP) was removed by aspiration.

α4β7 [10] = target: T6, α4β7; test: RPMI 8866 cell adhesion to MadCAM-1; assay type: cell-based; set-up: endogenous in cells; host or cells: JY cells (A11); RPMI 8866 cells (A12); settings: RPMI 8866 cells, α4β7, ligand MadCAM-1
Protocol: as §1, §2

α4β1 [11] = target: T10, α4β1 (UniProt G3HZ55+P13612); test: A2 (CHOα4+) cell adhesion to immobilized VCAM-1; assay type: cell-based, human; set-up: expressed in transfected cells; host or cells: CHO (A2 cells, α4+ α5+), gift of Dr. Y. Takada; settings: A2 (CHOα4+) cells, ligand VCAM-1
Protocol: as §1, §2

α4β1 [12] = target: T10, α4β1; test: α4B2 (CHOα4+/α5−) cell adhesion to immobilized VCAM-1; assay type: cell-based, human; set-up: expressed in transfected cells; host or cells: B2 CHO cells (α5-deficient), gift of Dr. Y. Takada; settings: α4B2 (CHOα4+/α5−) cells, ligand VCAM-1
Protocol: as §1
Chinese hamster ovary cells transfected with human α4 integrin were provided by Dr. Y. Takada (Scripps Research Institute, La Jolla, Calif.). […] The bound cells were lysed with 0.5% Triton X-100, and fluorescence was measured.
as §2

B1: EC-3 (protein, listed as Echis carinatus)
chain 1: NSVHPCCDPVKCEPREGEHCISGPCCRNCYFLRAGTVCKRAVGDDVDDYCSGITPDCPRNRYKGKED
chain 2: NSVHPCCDPVKCEPREGEHCISGPCCRNCKFLNAGTICKRAMLDGLNDYCTGISTDCPRNRYKGKED
αIIbβ3 [1]
  IC50: 500 nM
αvβ3; VNRC3 (CHOαvβ3+) cells, ligand Vn
  IC50: > 10000 nM
αvβ3; up to 10 μM
  inhibition of αvβ3-dependent adhesion: no inhibition
α5β1
  inhibition of binding of K562 cells to immobilized fibronectin: inhibited binding
α6β1; K562 (α6+) cells, α6β1, ligand Lm
  IC50: > 10000 nM
α6β1; at concentration 10 μM
  inhibition of adhesion to laminin of K562 cells transfected with α6: neither echistatin nor EC3 inhibited
α4β1 [2]
  IC50: 28 nM
α4β7 [3]
  IC50: 6 nM
α4β1 and α4β7 integrins; anchorage-dependent and anchorage-independent cells, read-out: concentration of highly potent inhibition of interaction of cells expressing α4β1 with VCAM-1 or CS-1
  IC50: 20 to 300 nM
α4β1 and α4β7 integrins; read-out: IC50, adhesion of cells expressing α4β1 and α4β7 integrins to VCAM-1 and MadCAM-1
  IC50: 5 to 300 nM
α4β1 integrin [4]
  inhibition of HP2/1 binding to Jurkat cells: No inhibitory effect
α4β1 integrin [5]
  inhibition of HP2/1 binding to α4B2 cells: inhibition of HP2/1 binding
α4 inactive G190A mutant
  interaction of inactive G190A α4 mutant with immobilized EC3: did not interact
[6]; ++ = ⅓ of the islet infiltrated, of 27 (echistatin) or 29 (EC-3) islets, nine weeks i.p.
  Number of Islets, Infiltration Score ++: 7
[6]; +++ = ½ or more of the islet infiltrated, of 27 (echistatin) or 29 (EC-3) islets, nine weeks i.p.
  Number of Islets, Infiltration Score +++: 0
[6]; NOD mice, i.p. three times per week for nine weeks, echistatin 1 μg/mouse, EC-3 3 μg/mouse, 10 animals per group
  Number of Animals without infiltration: 2
[6]; echistatin 1 μg/mouse, EC-3 3 μg/mouse, i.p. three times per week, nine weeks
  effect on lymphocyte infiltration in pancreatic islets of NOD mice (in words): reduced levels of lymphocyte infiltration; also recorded: can block lymphocyte invasion; also recorded: reduced the level of lymphocyte infiltration
[6]; − = no infiltration, of 27 (echistatin) or 29 (EC-3) islets, nine weeks i.p.
  Number of Islets, Infiltration Score −: 10
α4β1 [7]; 5 μg per sample of protein from fraction
  inhibitory effect on Jurkat cell binding to immobilized VCAM-1: significant inhibitory effects
α4β1 [7]; Jurkat cells, ligand VCAM-1, read-out: IC50, cell adhesion
  IC50: 25 nM
α4β1 [8]
  IC50: 100 nM
αIIbβ3 [9]
  IC50: 1000 nM
α4β7 [10]
  IC50: 5 nM
α4β1 [11]
  IC50: 30 nM
α4β1 [12]
  IC50: 30 nM
